IntAct's records for PubMed 20023629

Target: mcl1_human MCL1 (UniProt Q07820)
Sequence (Q07820 whole entry): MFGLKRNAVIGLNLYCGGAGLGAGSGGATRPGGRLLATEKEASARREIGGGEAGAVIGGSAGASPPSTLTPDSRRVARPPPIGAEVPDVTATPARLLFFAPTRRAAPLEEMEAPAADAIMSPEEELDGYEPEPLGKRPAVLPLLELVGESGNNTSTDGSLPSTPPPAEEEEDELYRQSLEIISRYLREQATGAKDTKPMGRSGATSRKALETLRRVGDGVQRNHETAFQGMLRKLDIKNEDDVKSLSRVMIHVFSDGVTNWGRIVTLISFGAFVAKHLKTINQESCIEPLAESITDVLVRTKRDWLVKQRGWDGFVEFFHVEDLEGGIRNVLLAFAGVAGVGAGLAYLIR

Ubiquitin carboxyl-terminal hydrolase 9X (Homo sapiens), Q93008 C1566S
effect of a mutation on the interaction: disrupting interaction
